Results from patent publication US20160003835, “APTAMERS AND USES THEREOF” (CARIS LIFE SCIENCES SWITZERLAND HOLDINGS S.A.R.L., published 2016).

Experiments:
[1] = biological target: T1, EpCAM (UniProt P16422 P16422:24-265); assay: SPR; immobilized biotinylated aptamer, HBS-EP+ buffer, global fit; details: label: biotin
T1 sequence: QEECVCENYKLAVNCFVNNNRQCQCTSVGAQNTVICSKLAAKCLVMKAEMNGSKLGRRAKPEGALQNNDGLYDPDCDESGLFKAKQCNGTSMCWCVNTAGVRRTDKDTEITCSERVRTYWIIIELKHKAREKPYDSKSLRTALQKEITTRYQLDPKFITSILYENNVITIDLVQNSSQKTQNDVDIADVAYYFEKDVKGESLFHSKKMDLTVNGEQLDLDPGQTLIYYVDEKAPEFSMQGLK

[2] = biological target: PSMA (FOLH1/NAALADase I) (UniProt Q04609 Q04609:44-750); assay: ELONA; ELISA against recombinant PSMA, values only in figure; details: label: biotin
[3] = biological target: T1, EpCAM; assay: ELONA; standard ELISA plate; details: tags: Fc fusion; label: biotin
[4] = biological target: T1, EpCAM; assay: bead fluorescence assay, anti-His beads; improved by 1 mM MgCl2 in 25 mM HEPES; lower affinity than Aptamer 4; details: tags: His tag; label: biotin / SA-PE
Procedure: Purified CAR003 aptamer was tested for binding to recombinant EPCAM protein with a polyhistidine tag (“His tagged”) using the following internally developed assay. Anti-His tag conjugated beads were mixed with EPCAM-His tagged protein. The aptamer to be tested was labeled with streptavidin-phycoerythrin (SA-PE). The EpCAM-beads and SA-PE labeled aptamers were mixed. Binding was determined as median flourescent value in a bead assay as described herein. MFI values (FIG. 20E-F) increase with increased binding of the SA-PE labeled aptamer to the recombinant EpCAM. FIGS. 20E-F illustrate binding of CAR003 to EPCAM protein in 25 mM HEPES with PBS-BN (PBS, 1% BSA, 0.05% Azide, pH 7.4) (FIG. 20E) or in 25 mM HEPES with 1 mM MgCl₂ (FIG. 20F). EPCAM aptamer Aptamer 4 (see above) was used for comparison. As shown in the figures, CAR003 pool 3 more efficiently binds its target in the presence of MgCl₂ (FIG. 20F) than in the presence of BSA (FIG. 20E).
CAR003 affinity to EpCAM in the bead assay environment was assessed in the same assay as above with aptamer titrated across a constant input of antigen. FIG. 20I illustrates titration of aptamers against EPCAM recombinant protein (constant input 5 μg).

[5] = biological target: T1, EpCAM; assay: SPR; immobilized biotinylated aptamer, HBS-EP+ buffer, global fit; details: label: biotin; remark: listed apart in the source
Procedure: FIG. 4 illustrates results from a binding assay showing the binding affinity of an exemplary aptamer (Aptamer ID BTX176881 (SEQ ID NO. 98883)) to the target EpCAM protein at various target concentrations. The aptamer to be tested is fixed to a substrate using a biotin tail and is incubated with various concentrations of target (125, 250 and 500 nM). The test is performed on a surface plasmon resonance machine (SPR). The SPR machine detects association and disassociation of the aptamer and the target. Target is applied until the association and disassociation events are equal, resulting in a plateau of the curve. The equations describing the curve at each concentration can then be used to calculate the KD of the aptamer (see Table 5).
The Biacore 200 control software is programmed with the following conditions: Solution: HBS-EP+Buffer; Number of cycles: 3; Contact time: 120s; Flow rate: 30 μl/min; Dissociation time: 300s; Solution: Glycine-HCl pH 2.5; Contact time: 120s; Flow rate: 20 μl/min; Stabilization period: Os. The binding affinities of these aptamers are then measured using the SPR assay above, or an alternate in vitro assay assessing the aptamer for a desired function.

Chain of PSMA (FOLH1/NAALADase I) (Q04609 44-750, one chain of several): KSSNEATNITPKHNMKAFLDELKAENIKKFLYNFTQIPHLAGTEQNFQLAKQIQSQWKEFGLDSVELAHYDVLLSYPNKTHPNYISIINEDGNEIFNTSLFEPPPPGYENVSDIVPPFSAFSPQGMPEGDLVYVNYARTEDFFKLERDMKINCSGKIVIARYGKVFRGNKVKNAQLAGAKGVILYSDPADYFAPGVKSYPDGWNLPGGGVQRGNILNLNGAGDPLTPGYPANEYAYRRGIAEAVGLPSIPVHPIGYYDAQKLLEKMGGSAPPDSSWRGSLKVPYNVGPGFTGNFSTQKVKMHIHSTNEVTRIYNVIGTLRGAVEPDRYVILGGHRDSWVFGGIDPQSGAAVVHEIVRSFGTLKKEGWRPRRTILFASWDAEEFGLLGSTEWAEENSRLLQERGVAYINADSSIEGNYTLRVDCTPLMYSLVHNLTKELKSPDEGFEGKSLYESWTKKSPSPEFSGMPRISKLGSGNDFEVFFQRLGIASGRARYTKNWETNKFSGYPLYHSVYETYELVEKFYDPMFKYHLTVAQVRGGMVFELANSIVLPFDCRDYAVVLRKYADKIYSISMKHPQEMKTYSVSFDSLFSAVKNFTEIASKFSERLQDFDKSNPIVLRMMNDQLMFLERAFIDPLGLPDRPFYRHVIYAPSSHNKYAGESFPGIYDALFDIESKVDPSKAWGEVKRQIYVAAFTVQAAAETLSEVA

## CTGTGAGGCGTACTGCGGTGAGCCTCTCATTA (ssDNA, 3' tail of 6 thymines and biotin) [BTX187269]
[1]
  Kd: 7.12 nM

B1: CAR050 (ssDNA)
DNA: ACTAAGCCACCGTGTCCACCCCCCTCTGTCTCTTGTTTCTCTTTTCTATGCTGCGTCACTCTGGAT
modifications: 5' biotin
[2]
  binding result: binds

B2: CAR016 (ssDNA)
DNA: ACTAAGCCACCGTGTCCAACGTAAGTATATCTGTACAATGCTGCGTCACTCTGGAT
modifications: 5' biotin
[3]
  binding result: binds

## CCCCCCGAATCACATGACTTGGGCGGGGGTCG (ssDNA, 3' tail of 6 thymines and biotin) [Aptamer 4]
[1]
  Kd: 10.1 nM

B3: CAR051 (ssDNA)
DNA: ACTAAGCCACCGTGTCCAGCCCTATTCCCTCGCTTTCTCCCCTTTTGTTGCTGCGTCACTCTGGAT
modifications: 5' biotin
[2]
  binding result: binds

B4: CAR003 (ssDNA)
DNA: ATCCAGAGTGACGCAGCAGTCTTTTCTGATGGACACGTGGTGGTCTAGTATCTGGACACGGTGGCTTAGT
modifications: 3' biotin (CAR003.2_3'-B, same bases as SEQ 230823)
[4]
  binding result: binds

## CCGCGCAGATATACAACGTACCTCTGTGCGCA (ssDNA, 3' tail of 6 thymines and biotin) [BTX176881]
[5]
  Kd: 8.4 nM
